Source: patent US20260117202A1
Several values for one entry are separate records, joined by “and”; a condition that tells them apart may be missing. Identical values can stand only once.

Tests used:
FHCS-1 (RSV strain A2) [1] = target: FHCS-1 (RSV strain A2) (UniProt P03420); assay: ELISA; F coated 625 ng/ml; stored -80° C.
FHCS-2 (RSV strain A2) [2] = target: FHCS-2 (RSV strain A2) (UniProt P03420); assay: ELISA; F coated 625 ng/ml; stored -80° C.
FHCS-4 (RSV strain A2) [3] = target: FHCS-4 (RSV strain A2) (UniProt P03420); assay: ELISA; F coated 625 ng/ml; stored -80° C.
FHCS-1 (RSV strain A2) [4] = target: FHCS-1 (RSV strain A2) (UniProt P03420); assay: ELISA; F coated 312.5 ng/ml; stored 37° C. 4 W
FHCS-2 (RSV strain A2) [5] = target: FHCS-2 (RSV strain A2) (UniProt P03420); assay: ELISA; F coated 312.5 ng/ml; stored 37° C. 4 W
FHCS-4 (RSV strain A2) [6] = target: FHCS-4 (RSV strain A2) (UniProt P03420); assay: ELISA; F coated 312.5 ng/ml; stored 37° C. 4 W
FHCS-1 (RSV strain A2) [7] = target: FHCS-1 (RSV strain A2) (UniProt P03420); assay: ELISA; F coated 2500 ng/ml; stored 37° C. 4 W
FHCS-2 (RSV strain A2) [8] = target: FHCS-2 (RSV strain A2) (UniProt P03420); assay: ELISA; F coated 2500 ng/ml; stored 37° C. 4 W
FHCS-4 (RSV strain A2) [9] = target: FHCS-4 (RSV strain A2) (UniProt P03420); assay: ELISA; F coated 2500 ng/ml; stored 37° C. 4 W
FHCS-1 (RSV strain A2) [10] = target: FHCS-1 (RSV strain A2) (UniProt P03420); assay: ELISA; F coated 5000 ng/ml; stored 37° C. 4 W
FHCS-4 (RSV strain A2) [11] = target: FHCS-4 (RSV strain A2) (UniProt P03420); assay: ELISA; F coated 5000 ng/ml; stored 37° C. 4 W
FHCS-2 (RSV strain A2) [12] = target: FHCS-2 (RSV strain A2) (UniProt P03420); assay: ELISA; F coated 312.5 ng/ml; stored -80° C.
FHCS-4 (RSV strain A2) [13] = target: FHCS-4 (RSV strain A2) (UniProt P03420); assay: ELISA; F coated 312.5 ng/ml; stored -80° C.
FHCS-1 (RSV strain A2) [14] = target: FHCS-1 (RSV strain A2) (UniProt P03420); assay: ELISA; F coated 1250 ng/ml; stored -80° C.
FHCS-2 (RSV strain A2) [15] = target: FHCS-2 (RSV strain A2) (UniProt P03420); assay: ELISA; F coated 1250 ng/ml; stored -80° C.
FHCS-4 (RSV strain A2) [16] = target: FHCS-4 (RSV strain A2) (UniProt P03420); assay: ELISA; F coated 1250 ng/ml; stored -80° C.
FHCS-1 (RSV strain A2) [17] = target: FHCS-1 (RSV strain A2) (UniProt P03420); assay: ELISA; F coated 312.5 ng/ml; stored -80° C.
FHCS-2 (RSV strain A2) [18] = target: FHCS-2 (RSV strain A2) (UniProt P03420); assay: ELISA; F coated 312.5 ng/ml; stored -80° C.; remark: listed apart in the source
FHCS-4 (RSV strain A2) [19] = target: FHCS-4 (RSV strain A2) (UniProt P03420); assay: ELISA; F coated 312.5 ng/ml; stored -80° C.; remark: listed apart in the source
FHCS-1 (RSV strain A2) [20] = target: FHCS-1 (RSV strain A2) (UniProt P03420); assay: ELISA; F coated 625 ng/ml; stored 37° C. 4 W
FHCS-2 (RSV strain A2) [21] = target: FHCS-2 (RSV strain A2) (UniProt P03420); assay: ELISA; F coated 625 ng/ml; stored 37° C. 4 W
FHCS-4 (RSV strain A2) [22] = target: FHCS-4 (RSV strain A2) (UniProt P03420); assay: ELISA; F coated 625 ng/ml; stored 37° C. 4 W
FHCS-1 (RSV strain A2) [23] = target: FHCS-1 (RSV strain A2) (UniProt P03420); assay: ELISA; F coated 1250 ng/ml; stored 37° C. 4 W
FHCS-2 (RSV strain A2) [24] = target: FHCS-2 (RSV strain A2) (UniProt P03420); assay: ELISA; F coated 1250 ng/ml; stored 37° C. 4 W
FHCS-4 (RSV strain A2) [25] = target: FHCS-4 (RSV strain A2) (UniProt P03420); assay: ELISA; F coated 1250 ng/ml; stored 37° C. 4 W
FHCS-1 (RSV strain A2) [26] = target: FHCS-1 (RSV strain A2) (UniProt P03420); assay: ELISA; F coated 2500 ng/ml; stored -80° C.
FHCS-2 (RSV strain A2) [27] = target: FHCS-2 (RSV strain A2) (UniProt P03420); assay: ELISA; F coated 2500 ng/ml; stored -80° C.
FHCS-4 (RSV strain A2) [28] = target: FHCS-4 (RSV strain A2) (UniProt P03420); assay: ELISA; F coated 2500 ng/ml; stored -80° C.
FHCS-1 (RSV strain A2) [29] = target: FHCS-1 (RSV strain A2) (UniProt P03420); assay: ELISA; F coated 1250 ng/ml; stored -80° C.; remark: listed apart in the source
FHCS-2 (RSV strain A2) [30] = target: FHCS-2 (RSV strain A2) (UniProt P03420); assay: ELISA; F coated 1250 ng/ml; stored -80° C.; remark: listed apart in the source
FHCS-4 (RSV strain A2) [31] = target: FHCS-4 (RSV strain A2) (UniProt P03420); assay: ELISA; F coated 1250 ng/ml; stored -80° C.; remark: listed apart in the source
FHCS-1 (RSV strain A2) [32] = target: FHCS-1 (RSV strain A2) (UniProt P03420); assay: ELISA; F coated 10000 ng/ml; stored -80° C.
FHCS-2 (RSV strain A2) [33] = target: FHCS-2 (RSV strain A2) (UniProt P03420); assay: ELISA; F coated 10000 ng/ml; stored -80° C.
FHCS-4 (RSV strain A2) [34] = target: FHCS-4 (RSV strain A2) (UniProt P03420); assay: ELISA; F coated 10000 ng/ml; stored -80° C.
FHCS-1 (RSV strain A2) [35] = target: FHCS-1 (RSV strain A2) (UniProt P03420); assay: ELISA; F coated 2500 ng/ml; stored -80° C.; remark: listed apart in the source
FHCS-2 (RSV strain A2) [36] = target: FHCS-2 (RSV strain A2) (UniProt P03420); assay: ELISA; F coated 2500 ng/ml; stored -80° C.; remark: listed apart in the source
FHCS-4 (RSV strain A2) [37] = target: FHCS-4 (RSV strain A2) (UniProt P03420); assay: ELISA; F coated 2500 ng/ml; stored -80° C.; remark: listed apart in the source

Substance | OD value (FHCS-1 (RSV strain A2) [1]) | OD value (FHCS-2 (RSV strain A2) [2]) | OD value (FHCS-4 (RSV strain A2) [3]) | OD value (FHCS-1 (RSV strain A2) [4]) | OD value (FHCS-2 (RSV strain A2) [5]) | OD value (FHCS-4 (RSV strain A2) [6]) | OD value (FHCS-1 (RSV strain A2) [7]) | OD value (FHCS-2 (RSV strain A2) [8]) | OD value (FHCS-4 (RSV strain A2) [9]) | OD value (FHCS-2 (RSV strain A2) [12]) | OD value (FHCS-4 (RSV strain A2) [13]) | OD value (FHCS-1 (RSV strain A2) [14]) | OD value (FHCS-2 (RSV strain A2) [15]) | OD value (FHCS-4 (RSV strain A2) [16]) | OD value (FHCS-1 (RSV strain A2) [20]) | OD value (FHCS-2 (RSV strain A2) [21]) | OD value (FHCS-4 (RSV strain A2) [22]) | OD value (FHCS-1 (RSV strain A2) [23]) | OD value (FHCS-2 (RSV strain A2) [24]) | OD value (FHCS-4 (RSV strain A2) [25]) | other results
AM14 monoclonal antibody | 0.003 OD and 0.005 OD | 0.005 OD and 0.006 OD | 0.007 OD | 0.005 OD | 0.005 OD | 0.004 OD and 0.007 OD | 0.109 OD and 0.096 OD | 0.45 OD and 0.185 OD | 0.045 OD and 0.019 OD | 0.005 OD | 0.004 OD and 0.007 OD | 0.006 OD | 0.009 OD and 0.013 OD | 0.013 OD and 0.011 OD | 0.006 OD and 0.008 OD | 0.005 OD and 0.006 OD | 0.006 OD and 0.007 OD | 0.018 OD and 0.024 OD | 0.025 OD and 0.019 OD | 0.007 OD and 0.008 OD | OD value (FHCS-1 (RSV strain A2) [10]): 1.17 OD and 1.33 OD; OD value (FHCS-4 (RSV strain A2) [11]): 0.665 OD and 0.438 OD; OD value (FHCS-1 (RSV strain A2) [17]): 0.003 OD and 0.006 OD; OD value (FHCS-2 (RSV strain A2) [18]): 0.007 OD; OD value (FHCS-4 (RSV strain A2) [19]): 0.008 OD and 0.006 OD; OD value (FHCS-1 (RSV strain A2) [26]): 0.021 OD and 0.03 OD; OD value (FHCS-2 (RSV strain A2) [27]): 0.02 OD and 0.024 OD; OD value (FHCS-4 (RSV strain A2) [28]): 0.04 OD and 0.028 OD; OD value (FHCS-1 (RSV strain A2) [29]): 0.011 OD and 0.015 OD; OD value (FHCS-2 (RSV strain A2) [30]): 0.017 OD and 0.02 OD; OD value (FHCS-4 (RSV strain A2) [31]): 0.007 OD and 0.006 OD; OD value (FHCS-1 (RSV strain A2) [32]): 1.82 OD and 2.12 OD; OD value (FHCS-2 (RSV strain A2) [33]): 1.88 OD and 2.15 OD; OD value (FHCS-4 (RSV strain A2) [34]): 2.13 OD and 1.93 OD
Synagis® (antibody) | 0.17 OD and 0.181 OD | 0.209 OD and 0.208 OD | 0.094 OD and 0.066 OD | 0.142 OD and 0.168 OD | 0.154 OD and 0.143 OD | 0.138 OD and 0.12 OD | 1.91 OD and 2.11 OD | 1.82 OD and 1.84 OD | 1.8 OD and 1.78 OD | 0.089 OD and 0.108 OD | 0.052 OD and 0.033 OD | 0.357 OD and 0.35 OD | 0.572 OD and 0.767 OD | 0.252 OD and 0.209 OD | 0.324 OD and 0.612 OD | 0.42 OD and 0.4 OD | 0.378 OD and 0.389 OD | 1.17 OD and 1.22 OD | 0.995 OD and 0.91 OD | 1.05 OD and 0.985 OD | OD value (FHCS-1 (RSV strain A2) [35]): 1.5 OD and 1.61 OD; OD value (FHCS-2 (RSV strain A2) [36]): 1.78 OD and 1.8 OD; OD value (FHCS-4 (RSV strain A2) [37]): 0.947 OD and 0.991 OD; OD value (FHCS-1 (RSV strain A2) [26]): 1.35 OD; OD value (FHCS-2 (RSV strain A2) [27]): 1.65 OD and 1.91 OD; OD value (FHCS-4 (RSV strain A2) [28]): 0.825 OD and 0.743 OD
